Results: patent US20060281899A1, “Mutants of biotin binding protein” (priority 2002, published 2006)

Experiments:
[1] = Differential scanning calorimetry of avidin and AVR4/5 forms; format: physicochemical
Experimental: The thermodynamics of the heat-induced unfolding of the proteins were studied using DSC. The transition midpoint of heat-induced denaturation (Tm) of the avidin and different AVR4/5 forms was studied using a Nano II differential scanning calorimeter (Calorimetric Sciences Corporation, Provo, Utah, USA). The reference cell was filled with buffer whereas the sample cell was filled with proteins dissolved in 50 mM sodium phosphate buffer, pH 7.0 containing 100 mM NaCl. Avidin and AVR4/5(C124S) were also analyzed in 50 mM Na-acetate pH 4.0 containing 100 mM NaCl. Furthermore, AVR4/5 was analyzed in the presence of 2-mercaptoethanol (0.4% v/v). The samples (1.6-9.6 μM) were analyzed both in the absence and presence of a three fold molar excess of biotin/subunit. All samples were degassed before being loaded into the DSC. The thermograms were recorded as a function of temperature; between 25 and 130° C. at a rate of 55.6° C./h (Gonzalez, M., Argarana, C. E. & Fidelio, G. D. (1999) Biomol. Eng. 16, 67-72; Nordlund, H. R., Laitinen, O. H., Uotila, S. T., Nyholm, T., Hytönen, V. P., Slotte, J. P. & Kulomaa, M. S. (2003) J. Biol. Chem. 278, 2479-2483). Data was analyzed using Microcal Origin 6.0 and Cpcalc 2.1 (Applied Thermodynamics, Hunt Valley, Md.). The change in heat capacity upon unfolding (ΔCp) was measured for avidin and AVR4/5(C124S) using DSC data from measurements in pH 4.0 and 7.0. ΔCp was then obtained from the slope of ΔH vs. Tm (Liu, Y. & Sturtevant, J. M. (1996) Biochemistry 35, 3059-3062).

[2] = IAsys reversibility of binding to biotin, AVR4/5 forms; details: biotin cuvette
Experimental: The biotin-binding characteristics of the different avidins were studied using an IAsys optical biosensor at 20° C. […] H., Hytönen, V. P., Ahlroth, M. K., Pentikäinen, O. T., Gallagher, C., Nordlund, H. R., Ovod, V., Marttila, A. T., Porkka, E., Heino, S., Johnson, M. S., Airenne, K. J. & Kulomaa, M. S. (2002) Biochem. J. 363, 609-617).

[3] = Microparticle analysis, BF523-biotin binding of protein-coated particles before and after 95° C.; format: physicochemical
Experimental: Before the analysis, 3.22 μm microparticles with COOH-group/0.852 nm2 (Bangs laboratories, Fishers, Ind., USA) were covalently coated with biotin-binding proteins. Microparticles (1*108 pcs) were washed twice with H20 by sequential centrifuging (5000 g; 3 min) and aspiration, and resuspended in 200 μl PB buffer (50 mM NaH2PO4-HCl, pH 3.0). A solution of biotin binding protein (50 μl, 1 mg/ml or 3 mg/ml, 50 mM Na-acetate pH 4.0) was added while vortexing. The suspension was incubated for 1 h (500 rpm; 23° C.). Particles were washed with PB and with MES buffer (50 mM, pH 5.5) and suspended in MES buffer (200 μl). […] After the last wash particles were suspended in 100 μl volume and concentration of particles was determined with Multisizer 3 Coulter Counter (Beckman Coulter, Fullerton, Calif., USA). […]
Microparticles (5*106 pcs) were suspended in 900 μl of assay buffer and aliquoted in […] PCR-tubes (i-v; 180 μl/aliquot). […] The samples were measured with ArcDia TPX PlateReader (ArcDia Ltd.) (Soini, E., Meltola, N. J., Soini, A. E., Soukka, J., Soini, J. T. & Hanninen, P. E. (2000) Biochem. Soc. Trans. 28, 70-74). […]
The fluorescence emission efficiencies of the BF523-biotin conjugate (200 nM) was determined before and after the incubation (30 min) at 95° C. […]

B1: AVR4/5: Recombinant chicken avidin-related protein 4/5 (AVR4 and AVR5 identical in coding sequence) (protein, UniProt P56734 25-150, looked up)
Avidin-related protein 4/5: ARKCSLTGKWTNNLGSIMTIRAVNSRGEFTGTYLTAVADNPGNITLSPLLGIQHKRASQPTFGFTVHWNFSESTTVFTGQCFIDRNGKEVLKTMWLLRSSVNDISYDWKATRVGYNNFTRLCTVEE
[1]; 50 mM sodium phosphate pH 7.0, 100 mM NaCl
  DSC Tm(−biotin): 107.4 ± 0.3 °C
[1]; change in Tm upon addition of a three-fold molar excess of biotin
  ΔTm: 17.3 °C
[1]; sample without biotin
  ΔH of unfolding: 194 ± 33.5 kcal/mol
[1]; three-fold molar excess of biotin, pH 7.0
  DSC Tm (+biotin): 124.7 ± 0.3 °C
[2]
  Reversibility of binding to biotin: 5 ± 3%
[3]; 30 minutes at 95° C., BF523-biotin added after treatment (iv)
  original signal after heat treatment of coated particles: 93%
[3]; BF523-biotin binding, no heat treatment (i, iii)
  capacity of coated particles: remarkably higher
